In US20180119100A1:

How the values were obtained:
Assay in all cases: cell-based or functional assay
[1] = molecular target: Jagged-1 expressed on mouse GM-BMDCs (mouse) (UniProt Q9QXX0)
[2] = molecular target: Notch 3 expressed on mouse T-cells (Tregs) (mouse) (UniProt Q61982)
[3] = molecular target: OX40L expressed on mouse GM-BMDCs (mouse) (UniProt P43488)
UniProt P43488, sequence (P43488 whole entry): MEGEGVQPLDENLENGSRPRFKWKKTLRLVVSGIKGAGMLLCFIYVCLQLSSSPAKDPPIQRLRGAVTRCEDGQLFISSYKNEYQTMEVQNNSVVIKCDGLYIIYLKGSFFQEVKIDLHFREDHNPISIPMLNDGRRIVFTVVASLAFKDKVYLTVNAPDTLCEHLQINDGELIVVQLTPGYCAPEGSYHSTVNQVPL

UniProt Q61982, sequence (Q61982 40-2318): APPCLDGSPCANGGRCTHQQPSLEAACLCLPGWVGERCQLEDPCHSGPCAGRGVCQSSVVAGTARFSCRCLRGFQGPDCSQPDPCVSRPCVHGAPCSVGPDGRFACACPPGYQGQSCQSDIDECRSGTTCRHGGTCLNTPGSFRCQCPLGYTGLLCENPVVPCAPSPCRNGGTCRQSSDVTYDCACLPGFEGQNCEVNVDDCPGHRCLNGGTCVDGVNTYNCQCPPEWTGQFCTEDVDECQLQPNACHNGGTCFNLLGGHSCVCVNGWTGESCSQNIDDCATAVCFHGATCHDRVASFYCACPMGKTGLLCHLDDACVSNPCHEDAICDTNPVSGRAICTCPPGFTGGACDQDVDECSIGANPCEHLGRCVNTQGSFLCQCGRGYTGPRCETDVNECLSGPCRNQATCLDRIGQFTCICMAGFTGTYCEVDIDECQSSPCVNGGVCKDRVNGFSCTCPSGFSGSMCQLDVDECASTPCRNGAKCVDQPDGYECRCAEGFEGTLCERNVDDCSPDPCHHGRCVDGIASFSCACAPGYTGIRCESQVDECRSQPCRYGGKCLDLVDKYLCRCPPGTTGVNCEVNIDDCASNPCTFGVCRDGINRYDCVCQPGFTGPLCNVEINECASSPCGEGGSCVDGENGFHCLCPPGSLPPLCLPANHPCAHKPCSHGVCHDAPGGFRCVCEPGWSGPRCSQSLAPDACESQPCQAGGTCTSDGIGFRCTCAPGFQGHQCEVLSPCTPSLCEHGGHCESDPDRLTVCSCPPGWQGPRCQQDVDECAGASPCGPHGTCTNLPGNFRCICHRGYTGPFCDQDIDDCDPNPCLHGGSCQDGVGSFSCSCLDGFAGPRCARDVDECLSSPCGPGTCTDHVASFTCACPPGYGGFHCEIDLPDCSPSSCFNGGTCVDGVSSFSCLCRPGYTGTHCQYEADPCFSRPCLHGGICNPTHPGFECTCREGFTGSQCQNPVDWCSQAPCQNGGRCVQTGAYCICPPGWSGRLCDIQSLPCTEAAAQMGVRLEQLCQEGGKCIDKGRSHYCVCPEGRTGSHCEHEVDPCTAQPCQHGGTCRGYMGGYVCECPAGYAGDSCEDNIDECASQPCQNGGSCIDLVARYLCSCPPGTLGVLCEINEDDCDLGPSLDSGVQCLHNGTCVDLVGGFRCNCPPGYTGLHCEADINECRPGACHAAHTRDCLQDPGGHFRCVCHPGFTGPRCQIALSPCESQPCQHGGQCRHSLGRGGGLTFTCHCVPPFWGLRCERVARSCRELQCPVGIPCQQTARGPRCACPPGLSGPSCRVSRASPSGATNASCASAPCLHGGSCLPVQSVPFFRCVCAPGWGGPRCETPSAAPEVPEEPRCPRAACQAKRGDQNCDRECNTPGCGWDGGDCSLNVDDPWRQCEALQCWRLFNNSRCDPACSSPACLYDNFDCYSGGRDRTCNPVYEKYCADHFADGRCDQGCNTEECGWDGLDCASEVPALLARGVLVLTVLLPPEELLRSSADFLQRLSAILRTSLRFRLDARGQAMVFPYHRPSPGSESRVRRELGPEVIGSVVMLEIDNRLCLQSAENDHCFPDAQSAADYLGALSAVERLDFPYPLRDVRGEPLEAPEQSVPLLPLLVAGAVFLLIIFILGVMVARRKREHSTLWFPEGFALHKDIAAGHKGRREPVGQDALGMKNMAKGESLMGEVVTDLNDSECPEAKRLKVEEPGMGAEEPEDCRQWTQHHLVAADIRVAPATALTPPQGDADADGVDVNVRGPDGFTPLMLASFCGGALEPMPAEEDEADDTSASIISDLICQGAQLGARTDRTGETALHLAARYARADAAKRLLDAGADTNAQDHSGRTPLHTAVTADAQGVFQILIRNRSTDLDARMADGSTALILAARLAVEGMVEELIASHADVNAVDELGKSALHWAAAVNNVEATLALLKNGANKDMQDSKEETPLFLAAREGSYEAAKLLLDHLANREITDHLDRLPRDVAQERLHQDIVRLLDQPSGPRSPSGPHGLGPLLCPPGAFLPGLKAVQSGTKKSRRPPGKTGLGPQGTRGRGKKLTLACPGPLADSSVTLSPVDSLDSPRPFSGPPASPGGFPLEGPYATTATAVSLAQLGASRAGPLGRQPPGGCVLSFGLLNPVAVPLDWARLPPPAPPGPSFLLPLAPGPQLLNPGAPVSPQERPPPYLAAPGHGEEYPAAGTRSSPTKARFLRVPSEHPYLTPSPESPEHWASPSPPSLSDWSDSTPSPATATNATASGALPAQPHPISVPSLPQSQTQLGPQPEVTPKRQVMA
UniProt Q9QXX0, sequence (Q9QXX0 34-1218): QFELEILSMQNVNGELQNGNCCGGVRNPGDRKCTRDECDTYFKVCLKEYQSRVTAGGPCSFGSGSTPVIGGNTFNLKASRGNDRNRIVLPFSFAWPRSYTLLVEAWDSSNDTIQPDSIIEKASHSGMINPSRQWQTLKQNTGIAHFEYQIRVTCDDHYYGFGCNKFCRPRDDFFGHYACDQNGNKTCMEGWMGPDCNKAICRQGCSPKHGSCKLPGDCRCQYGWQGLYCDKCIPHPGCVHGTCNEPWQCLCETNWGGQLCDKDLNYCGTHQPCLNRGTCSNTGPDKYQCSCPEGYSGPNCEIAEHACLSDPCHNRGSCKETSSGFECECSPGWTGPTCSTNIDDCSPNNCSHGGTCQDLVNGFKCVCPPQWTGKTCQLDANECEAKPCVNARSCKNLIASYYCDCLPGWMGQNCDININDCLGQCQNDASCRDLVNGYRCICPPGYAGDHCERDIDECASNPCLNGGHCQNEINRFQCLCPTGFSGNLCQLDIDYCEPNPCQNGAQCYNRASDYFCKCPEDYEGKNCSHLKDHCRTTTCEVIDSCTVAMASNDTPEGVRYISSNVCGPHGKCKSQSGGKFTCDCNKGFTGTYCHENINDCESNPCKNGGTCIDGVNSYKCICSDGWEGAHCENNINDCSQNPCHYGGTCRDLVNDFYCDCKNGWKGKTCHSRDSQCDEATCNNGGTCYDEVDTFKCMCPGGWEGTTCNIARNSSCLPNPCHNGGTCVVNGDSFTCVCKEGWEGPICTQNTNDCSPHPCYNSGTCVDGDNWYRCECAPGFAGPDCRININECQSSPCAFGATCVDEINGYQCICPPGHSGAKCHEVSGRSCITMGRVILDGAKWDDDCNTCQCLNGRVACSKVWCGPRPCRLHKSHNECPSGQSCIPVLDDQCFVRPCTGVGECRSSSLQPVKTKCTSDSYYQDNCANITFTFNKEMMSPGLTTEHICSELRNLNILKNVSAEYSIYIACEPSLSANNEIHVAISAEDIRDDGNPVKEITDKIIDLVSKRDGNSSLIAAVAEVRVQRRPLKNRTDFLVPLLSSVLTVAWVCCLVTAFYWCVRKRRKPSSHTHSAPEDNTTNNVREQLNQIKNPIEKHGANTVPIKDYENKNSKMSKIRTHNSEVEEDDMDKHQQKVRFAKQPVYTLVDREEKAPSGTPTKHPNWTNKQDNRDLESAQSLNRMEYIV

Substance: Blocking antibody to Jagged-1 (AF599, R&D systems)
- Treg proliferation (%) in GM-BMDC/CD4+ T-cell co-culture with anti-Jagged-1-Hi (13.0% without antibody) [1]: 5.3%

Substance: Jagged-1 expressed on mouse GM-BMDCs (from UniProt Q9QXX0 34-1218) (ligand)
- Proliferating Foxp3+ T cells positive for Notch 3 NICD in GM-BMDC/T-cell co-cultures (FACS) [2]: 97%

Substance: Blocking antibody to OX40L (AF1236, R&D systems)
- Treg proliferation (%) in GM-BMDC/CD4+ T-cell co-culture with anti-OX40L-Hi (13.0% without antibody) [3]: 3.7%
